In article PMC9653487, “Structural basis for mechanotransduction in a potassium-dependent mechanosensitive ion channel” (Nature Communications, 2022):

Columns and labels:
[1] = biological target: the molecule itself; assay: cryo-EM structure; single-particle cryo-EM of EcMscK G924S in 0.02% GDN, 20 mM Tris-HCl pH 8.0, 150 mM NaCl or 150 mM KCl (datasets combined); refined with C7 symmetry; closed, intermediate and open classes
[2] = biological target: the molecule itself; assay: cryo-EM structure; single-particle cryo-EM of WT EcMscK in 0.02% GDN, 20 mM Tris-HCl pH 8.0, 150 mM NaCl; refined with C7 symmetry

Protein | stoichiometry N [1] | binding result [2]
E. coli MscK (EcMscK) G924S gain-of-function mutant channel (natural protein, UniProt P77338 34-1120, looked up, E. coli mechanosensitive channel MscK, 1120 amino acids, full length, with the point mutation G924S made by site-directed mutagenesis; Homoheptamer; closed, intermediate and open conformations came from the same sample; A few residues of the PreScission site are left at the C-terminus after cleavage; The deposited models lack unresolved parts, and some segments are polyalanine; also called G924S …) RASSNGDLPTKADLQAQLDSLNKQKDLSAQDKLVQQDLTDTLATLDKIDRIKEETVQLRQKVAEAPEKMRQATAALTALSDVDNDEETRKILSTLSLRQLETRVAQALDDLQNAQNDLASYNSQLVSLQTQPERVQNAMYNASQQLQQIRSRLDGTDVGETALRPSQKVLMQAQQALLNAEIDQQRKSLEGNTVLQDTLQKQRDYVTANSARLEHQLQLLQEAVNSKRLTLTEKTAQEAVSPDEAARIQANPLVKQELEINQQLSQRLITATENGNQLMQQNIKVKNWLERALQSERNIKEQIAVLKGSLLLSRILYQQQQTLPSADELENMTNRIADLRLEQFEVNQQRDALFQSDAFVNKLEEGHTNEVNSEVHDALLQVVDMRRELLDQLNKQLGNQLMMAINLQINQQQLMSVSKNLKSILTQQIFWVNSNRPMDWDWIKAFPQSLKDEFKSMKITVNWQKAWPAVFIAFLAGLPLLLIAGLIHWRLGWLKAYQQKLASAVGSLRNDSQLNTPKAILIDLIRALPVCLIILAVGLILLTMQLNISELLWSFSKKLAIFWLVFGLCWKVLEKNGVAVRHFGMPEQQTSHWRRQIVRISLALLPIHFWSVVAELSPLHLMDDVLGQAMIFFNLLLIAFLVWPMCRESWRDKESHTMRLVTITVLSIIPIALMVLTATGYFYTTLRLAGRWIETVYLVIIWNLLYQTVLRGLSVAARRIAWRRALARRQNLVKEGAEGAEPPEEPTIALEQVNQQTLRITMLLMFALFGVMFWAIWSDLITVFSYLDSITLWHYNGTEAGAAVVKNVTMGSLLFAIIASMVAWALIRNLPGLLEVLVLSRLNMRQGASYAITTILNYIIIAVGAMTVFGSLGVSWDKLQWLAAALSVGLSFGLQEIFGNFVSGLIILFERPVRIGDTVTIGSFSGTVSKIRIRATTITDFDRKEVIIPNKAFVTERLINWSLTDTTTRLVIRLGVAYGSDLEKVRKVLLKAATEHPRVMHEPMPEVFFTAFGASTLDHELRLYVRELRDRSRTVDELNRTIDQLCRENDINIAFNQLEVHLHNEKGDEVTEVKRDYKGDDPTPAVG | 7 | –
E. coli MscK (EcMscK), full-length wild-type channel (natural protein, UniProt P77338 34-1120, looked up, E. coli mechanosensitive channel MscK, 1120 amino acids, full length, codon-optimized synthetic DNA; Homoheptamer; A few residues of the PreScission site are left at the C-terminus after cleavage; also called WT EcMscK; WT channel; not shown: GFP, C-terminal, cleaved; His10, C-terminal, cleaved) RASSNGDLPTKADLQAQLDSLNKQKDLSAQDKLVQQDLTDTLATLDKIDRIKEETVQLRQKVAEAPEKMRQATAALTALSDVDNDEETRKILSTLSLRQLETRVAQALDDLQNAQNDLASYNSQLVSLQTQPERVQNAMYNASQQLQQIRSRLDGTDVGETALRPSQKVLMQAQQALLNAEIDQQRKSLEGNTVLQDTLQKQRDYVTANSARLEHQLQLLQEAVNSKRLTLTEKTAQEAVSPDEAARIQANPLVKQELEINQQLSQRLITATENGNQLMQQNIKVKNWLERALQSERNIKEQIAVLKGSLLLSRILYQQQQTLPSADELENMTNRIADLRLEQFEVNQQRDALFQSDAFVNKLEEGHTNEVNSEVHDALLQVVDMRRELLDQLNKQLGNQLMMAINLQINQQQLMSVSKNLKSILTQQIFWVNSNRPMDWDWIKAFPQSLKDEFKSMKITVNWQKAWPAVFIAFLAGLPLLLIAGLIHWRLGWLKAYQQKLASAVGSLRNDSQLNTPKAILIDLIRALPVCLIILAVGLILLTMQLNISELLWSFSKKLAIFWLVFGLCWKVLEKNGVAVRHFGMPEQQTSHWRRQIVRISLALLPIHFWSVVAELSPLHLMDDVLGQAMIFFNLLLIAFLVWPMCRESWRDKESHTMRLVTITVLSIIPIALMVLTATGYFYTTLRLAGRWIETVYLVIIWNLLYQTVLRGLSVAARRIAWRRALARRQNLVKEGAEGAEPPEEPTIALEQVNQQTLRITMLLMFALFGVMFWAIWSDLITVFSYLDSITLWHYNGTEAGAAVVKNVTMGSLLFAIIASMVAWALIRNLPGLLEVLVLSRLNMRQGASYAITTILNYIIIAVGAMTVFGSLGVSWDKLQWLAAALSVGLGFGLQEIFGNFVSGLIILFERPVRIGDTVTIGSFSGTVSKIRIRATTITDFDRKEVIIPNKAFVTERLINWSLTDTTTRLVIRLGVAYGSDLEKVRKVLLKAATEHPRVMHEPMPEVFFTAFGASTLDHELRLYVRELRDRSRTVDELNRTIDQLCRENDINIAFNQLEVHLHNEKGDEVTEVKRDYKGDDPTPAVG | – | binds
